Results reported in doi:10.1101/2021.12.16.472980.

Target: Suppressor of potassium transport defect 3 (SKD3), mature IMS form, residues 127-707 (human) (UniProt Q9H078)
Experiment: AUC

stoichiometry N: 12
Substance: Suppressor of potassium transport defect 3 (SKD3), mature IMS form, residues 127-707 (from UniProt Q9H078 127-707) (enzyme)
